Values of other authors, collected in PMC4754043 (Human Molecular Genetics, 2015).

System: human transmitochondrial cybrid cells and yeast with mt-tRNA mutations
Conditions: human cybrids and yeast; ref [9],[10],[11]

B1: mt-ValRS: mt-valyl-tRNA synthetase (protein, UniProt Q5ST30 27-1063, looked up)
Valine--tRNA ligase, …: SVSTQSEPHGSPISRRNREAKQKRLREKQATLEAEIAGESKSPAESIKAWRPKELVLYEIPTKPGEKKDVSGPLPPAYSPRYVEAAWYPWWVREGFFKPEYQARLPQATGETFSMCIPPPNVTGSLHIGHALTVAIQDALVRWHRMRGDQVLWVPGSDHAGIATQAVVEKQLWKERGVRRHELSREAFLREVWQWKEAKGGEICEQLRALGASLDWDRECFTMDVGSSVAVTEAFVRLYKAGLLYRNHQLVNWSCALRSAISDIEVENRPLPGHTQLRLPGCPTPVSFGLLFSVAFPVDGEPDAEVVVGTTRPETLPGDVAVAVHPDDSRYTHLHGRQLRHPLMGQPLPLITDYAVQPHVGTGAVKVTPAHSPADAEMGARHGLSPLNVIAEDGTMTSLCGDWLQGLHRFVAREKIMSVLSEWGLFRGLQNHPMVLPICSRSGDVIEYLLKNQWFVRCQEMGARAAKAVESGALELSPSFHQKNWQHWFSHIGDWCVSRQLWWGHQIPAYLVVEDHAQGEEDCWVVGRSEAEAREVAAELTGRPGAELTLERDPDVLDTWFSSALFPFSALGWPQETPDLARFYPLSLLETGSDLLLFWVGRMVMLGTQLTGQLPFSKVLLHPMVRDRQGRKMSKSLGNVLDPRDIISGVEMQVLQEKLRSGNLDPAELAIVAAAQKKDFPHGIPECGTDALRFTLCSHGVQAGDLHLSVSEVQSCRHFCNKIWNALRFILNALGEKFVPQPAEELSPSSPMDAWILSRLALAAQECERGFLTRELSLVTHALHHFWLHNLCDVYLEAVKPVLWHSPRPLGPPQVLFSCADLGLRLLAPLMPFLAEELWQRLPPRPGCPPAPSISVAPYPSACSLEHWRQPELERRFSRVQEVVQVLRALRATYQLTKARPRVLLQSSEPGDQGLFEAFLEPLGTLGYCGAVGLLPPGAAAPSGWAQAPLSDTAQVYMELQGLVDPQIQLPLLAARRYKLQKQLDSLTARTPSEGEAGTQRQQKLSSLQLELSKLDKAASHLRQLMDEPPAPGSPEL
rescue of defects due to mutations in non-cognate as well as cognate mt-tRNAs: able to rescue
